# Measured values taken from patent US20210046160A1, “Immuno Oncology Combination Therapies With IL-2 Conjugates” (Synthorx, Inc., priority 2019, published 2021).
# Experiments:
# Test in all cases: cell-based or functional assay
# [1] = biological target: IL-2βγ receptor complex on recombinant human U2OS cells (PathHunter IL-2 Cytokine Receptor assay) (UniProt P14784)
# [2] = biological target: IL-2 receptor αβγ on recombinant human U2OS cells further engineered to express the IL-2Rα subunit (PathHunter IL-2 Cytokine Receptor assay) (UniProt P01589)
# [3] = biological target: IL-2 receptor signaling complexes on human primary CD8+ T cells and NK cells (human) (UniProt P14784)
# IL-2 receptor signaling complexes on human primary CD8+ T cells and NK cells (human), sequence (P14784 27-551, chain 1 of 2): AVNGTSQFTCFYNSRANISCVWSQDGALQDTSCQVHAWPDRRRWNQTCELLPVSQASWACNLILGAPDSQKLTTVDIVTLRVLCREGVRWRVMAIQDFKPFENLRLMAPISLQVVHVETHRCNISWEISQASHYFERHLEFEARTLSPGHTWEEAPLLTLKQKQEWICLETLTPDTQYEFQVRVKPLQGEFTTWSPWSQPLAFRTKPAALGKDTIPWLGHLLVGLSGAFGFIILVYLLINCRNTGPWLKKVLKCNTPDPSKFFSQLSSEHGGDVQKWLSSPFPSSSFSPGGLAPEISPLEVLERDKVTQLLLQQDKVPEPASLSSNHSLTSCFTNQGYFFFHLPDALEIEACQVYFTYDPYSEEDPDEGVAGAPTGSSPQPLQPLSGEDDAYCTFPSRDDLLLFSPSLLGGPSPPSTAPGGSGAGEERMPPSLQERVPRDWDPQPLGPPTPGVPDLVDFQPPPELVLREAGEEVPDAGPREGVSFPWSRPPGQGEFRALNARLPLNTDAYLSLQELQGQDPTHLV
# IL-2 receptor signaling complexes on human primary CD8+ T cells and NK cells (human), sequence (P31785 23-369, chain 2 of 2, further chain): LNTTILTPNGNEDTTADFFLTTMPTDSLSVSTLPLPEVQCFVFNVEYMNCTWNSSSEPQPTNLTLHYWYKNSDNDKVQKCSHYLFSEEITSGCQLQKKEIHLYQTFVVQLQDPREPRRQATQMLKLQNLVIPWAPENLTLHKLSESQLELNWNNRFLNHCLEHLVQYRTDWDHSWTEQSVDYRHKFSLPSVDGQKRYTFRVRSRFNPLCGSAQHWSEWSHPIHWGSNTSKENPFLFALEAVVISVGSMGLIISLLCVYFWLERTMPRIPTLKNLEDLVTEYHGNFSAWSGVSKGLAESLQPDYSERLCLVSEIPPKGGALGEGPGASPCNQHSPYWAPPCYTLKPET
# [4] = biological target: IL-2 receptor signaling complexes on human primary Treg cells (IL-2 Rα expressing) (human) (UniProt P01589)
# IL-2 receptor signaling complexes on human primary Treg cells (IL-2 Rα expressing) (human), sequence (P01589 22-272, chain 1 of 3): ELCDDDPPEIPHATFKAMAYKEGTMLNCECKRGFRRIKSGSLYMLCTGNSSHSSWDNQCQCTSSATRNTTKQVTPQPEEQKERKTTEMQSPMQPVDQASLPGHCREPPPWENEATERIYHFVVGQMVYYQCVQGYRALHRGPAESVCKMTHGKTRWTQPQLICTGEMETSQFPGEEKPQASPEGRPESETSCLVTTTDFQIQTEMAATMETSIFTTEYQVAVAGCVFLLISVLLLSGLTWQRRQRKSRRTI
# IL-2 receptor signaling complexes on human primary Treg cells (IL-2 Rα expressing) (human), sequence (P14784 27-551, chain 2 of 3, further chain): as the sequence (P14784 27-551, chain 1 of 2) above
# IL-2 receptor signaling complexes on human primary Treg cells (IL-2 Rα expressing) (human), sequence (P31785 23-369, chain 3 of 3, further chain): as the sequence (P31785 23-369, chain 2 of 2, further chain) above
# K43_30kD, sequence (P60568 other isoform, or with tags, fused parts or gaps limits assumed): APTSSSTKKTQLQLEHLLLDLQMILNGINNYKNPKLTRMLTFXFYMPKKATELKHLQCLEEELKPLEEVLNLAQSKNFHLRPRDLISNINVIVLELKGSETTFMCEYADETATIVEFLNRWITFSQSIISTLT
# F42_30kD, sequence (P60568 other isoform, or with tags, fused parts or gaps limits assumed): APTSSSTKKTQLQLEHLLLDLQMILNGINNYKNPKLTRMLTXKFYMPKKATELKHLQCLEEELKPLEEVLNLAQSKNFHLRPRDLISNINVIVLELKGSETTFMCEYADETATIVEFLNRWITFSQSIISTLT
# K35 (10 kD PEGylated IL-2 conjugate, Table 2), sequence (P60568 other isoform, or with tags, fused parts or gaps limits assumed): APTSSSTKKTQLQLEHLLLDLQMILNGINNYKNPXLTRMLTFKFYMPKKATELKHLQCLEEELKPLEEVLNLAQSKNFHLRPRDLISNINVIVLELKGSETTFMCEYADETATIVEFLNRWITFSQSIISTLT
"EC50 (nM), PathHunter IL-2 Cytokine Receptor assay, βγ [1] [nM]","EC50 (nM), PathHunter IL-2 Cytokine Receptor assay, αβγ [2] [nM]",EC50 for pSTAT5 signaling; CD8+ T Cells [3] [pg/mL],EC50 for pSTAT5 signaling; NK Cells [3] [pg/mL],EC50 for pSTAT5 signaling; Treg Cells [4] [pg/mL],Substance
6.09,0.515,,,,"F42 (10 kD PEGylated IL-2 conjugate, Table 2) (from UniProt P60568 21-153) (ligand)"
,,108000,16400,36900,F42_30kD (from UniProt P60568 21-153) (ligand)
6.75,,,,,"K35 (10 kD PEGylated IL-2 conjugate, Table 2) (from UniProt P60568 21-153) (ligand)"
,,50500,9000,4800,K43_30kD (from UniProt P60568 21-153) (ligand)

# Second part, the substance before the results:
Substance,"EC50 (nM), PathHunter IL-2 Cytokine Receptor assay, βγ [1] [nM]","EC50 (nM), PathHunter IL-2 Cytokine Receptor assay, αβγ [2] [nM]",EC50 for pSTAT5 signaling; CD8+ T Cells [3] [pg/mL],EC50 for pSTAT5 signaling; NK Cells [3] [pg/mL],EC50 for pSTAT5 signaling; Treg Cells [4] [pg/mL]
"K43 (10 kD PEGylated IL-2 conjugate, Table 2) (from UniProt P60568 21-153) (ligand)",9.84,0.131,,,
"R38 (10 kD PEGylated IL-2 conjugate, Table 2) (from UniProt P60568 21-153) (ligand)",4.16,0.165,,,
"T41 (10 kD PEGylated IL-2 conjugate, Table 2) (from UniProt P60568 21-153) (ligand)",6.37,0.0489,,,
"V69* (30 kD PEGylated IL-2 conjugate, Table 2) (from UniProt P60568 21-153) (ligand)",9.99,0.083,,,
"Y45* (30 kD PEGylated IL-2 conjugate, Table 2) (from UniProt P60568 21-153) (ligand)",9.06,0.11,,,
